Experiment [1] has as its target T1, melanocortin-1 receptor (MC1R) (UniProt Q01726 1-317, limits assumed).
T1 construct: whole, on cells; also called Hek293/MC1R cells; A375/MC1R cells
Briefly: time-resolved fluorescence (TRF) competition binding assay on Hek293/MC1R cells. As for the experimental part: (§1) Time-resolved fluorescence (TRF) competition binding assays were performed to determine binding affinities of these DOTA conjugates (FIG. 2). The TRF method takes advantage of the long fluorescence lifetime of the lanthanide Europium and can detect less than one attomole in a multiwell plate sample. Hek293/MC1R cells (Hek293 cells engineered to over-express MC1R) were used for the binding assays. Saturation TRF binding assays were performed using versions of the compounds with chelated europium to determine specific and non-specific binding (FIG. 17-20).

The target of experiment [2] is T1, melanocortin-1 receptor (MC1R). As to the kind of experiment: TRF saturation binding with the Eu chelate on Hek293/MC1R cells; specific = total minus nonspecific (20x MC1RL-DOTA block). As to the method: The binding sequence is 1-Phenylbutyric acid-His(D)Phe-Arg-Trp-Gly-Lys(D-di-Glu-DOTA)-CONH₂. Eu is chelated into the conjugated DOTA for lanthanide-based binding assays but ²²⁵Ac, ⁶⁸Ga, or ¹¹¹In can also be chelated. […] 20×MC1Rl-DOTA was used for blocking. […] Data is the result of two repeats.
as §1

Experiment [3] has the same target. As to the kind of experiment: not stated in the sentence (binding affinity of the DOTA conjugate and its chelates).
Experiment [4] has the same target. As to the kind of experiment: competitive binding assay (FIG. 2). As to the method: as §1

Data on 6 molecules can be found in patent US20180126013A1 (H LEE MOFFITT CANCER CENTER AND RESEARCH INSTITUTE, published 2018).

Square brackets hold non-standard residues; d marks the D form. Side chains are listed from the residue outwards. Ends that are not written are not given here. * marks the point of attachment. 1‑phenylbutyric acid = 1-phenylbutyric acid (N-terminal acyl cap); D‑di‑Glu = D-di-Glu linker between Lys side chain and DOTA; DOTA = O=C(O)CN1CCN(CC(=O)O)CCN(CC(=O)*)CCN(CC(=O)O)CC1; Ahx = NCCCCCC(=O)O

T1 sequence (Q01726 whole entry): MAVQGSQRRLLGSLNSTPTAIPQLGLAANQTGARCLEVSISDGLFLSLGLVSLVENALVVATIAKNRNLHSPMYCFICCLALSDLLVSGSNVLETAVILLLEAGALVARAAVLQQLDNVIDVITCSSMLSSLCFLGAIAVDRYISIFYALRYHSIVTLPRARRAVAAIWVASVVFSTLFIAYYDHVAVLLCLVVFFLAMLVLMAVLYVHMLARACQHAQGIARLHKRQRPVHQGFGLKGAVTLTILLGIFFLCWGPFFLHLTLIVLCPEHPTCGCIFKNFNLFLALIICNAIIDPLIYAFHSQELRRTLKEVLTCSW

B1: ^67/69Ga-DOTA-MC1RL (peptide)
peptide: H[dF]RWGK([Ahx-DOTA])-NH2
modifications: not fully specified (N-terminus); also: nonradioactive 67/69Ga chelated by DOTA
notes: Nonradioactive surrogate of the ^68Ga PET agent
As usually defined, the Ki is the equilibrium dissociation constant of an inhibitor or competing ligand from its target. The low end stands for tighter binding, the high end for weaker binding. As for B1, the affinity in experiment [1] corresponds to a Ki of 340 pM.

B2: MC1RL linked through D-di-Glu to DOTA:^152Eu (peptide)
peptide: {1‑phenylbutyric acid}-H[dF]RWGK([D‑di‑Glu-DOTA])-NH2
modifications: also: 152Eu chelate
notes: also called 1-Phenylbutyric acid-His(D)Phe-Arg-Trp-Gly-Lys(D-di-Glu-DOTA)-CONH2, Eu chelate
Broadly, the Kd is a measure of binding affinity in units of concentration. A low value points to higher affinity. Molecule B2 came in with a Kd in experiment [2] of 190 pM.

B3: MC1RL linked through aminohexanoic acid (Ahx) to DOTA:^152Eu (peptide)
peptide: {1‑phenylbutyric acid}-H[dF]RWGK([Ahx-DOTA])-NH2
modifications: also: 152Eu chelate
notes: also called 1-Phenylbutyric acid-His(D)Phe-Arg-Trp-Gly-Lys(Ahx-DOTA)-CONH2, Eu chelate
As for B3, binding in experiment [2] was characterised by a dissociation constant (Kd) of 880 pM.

B4: DOTA-MC1RL (unlabeled) (peptide)
peptide: H[dF]RWGK([Ahx-DOTA])-NH2
modifications: not fully specified (N-terminus)
notes: also called MC1RL-DOTA; DOTA labeled conjugate of the MC1R specific ligand
On to B4, for which the Ki in experiment [3] stood at 300 pM; in experiment [1], 240 pM.

B5: ^139La-DOTA-MC1RL (peptide)
peptide: H[dF]RWGK([Ahx-DOTA])-NH2
modifications: not fully specified (N-terminus); also: 139La chelated by DOTA
notes: Nonradioactive surrogate of ^225Ac-DOTA-MC1RL; also called cold agent
In the case of B5, the inhibition constant (Ki) in experiment [4] was 200 pM; in experiment [1], 230 pM.

B6: MC1RL linked to DOTA:^152Eu (peptide)
peptide: {1‑phenylbutyric acid}-H[dF]RWGK(DOTA)-NH2
modifications: also: 152Eu chelate
notes: also called 1-Phenylbutyric acid-His(D)Phe-Arg-Trp-Gly-Lys(DOTA)-CONH2, Eu chelate
Consider B6, for which binding in experiment [2] was put at a Kd of 690 pM.
